This note sets out measurements from paper PMC4664405.

The experiment has as its target Flag-tagged PDI-WT (UniProt P07237). Nature of the experiment: co-IP; Flag-M2 affinity resin on COS-7 lysates (50 mM TrisHCl, 150 mM NaCl); PDI-Flag co-expressed with one sGC subunit or one α construct; Western blot, densitometry of bound over input. (In general: Immunoblotting shows a protein as a band on a membrane.)

Chain of Flag-tagged PDI-WT (P07237 18-508): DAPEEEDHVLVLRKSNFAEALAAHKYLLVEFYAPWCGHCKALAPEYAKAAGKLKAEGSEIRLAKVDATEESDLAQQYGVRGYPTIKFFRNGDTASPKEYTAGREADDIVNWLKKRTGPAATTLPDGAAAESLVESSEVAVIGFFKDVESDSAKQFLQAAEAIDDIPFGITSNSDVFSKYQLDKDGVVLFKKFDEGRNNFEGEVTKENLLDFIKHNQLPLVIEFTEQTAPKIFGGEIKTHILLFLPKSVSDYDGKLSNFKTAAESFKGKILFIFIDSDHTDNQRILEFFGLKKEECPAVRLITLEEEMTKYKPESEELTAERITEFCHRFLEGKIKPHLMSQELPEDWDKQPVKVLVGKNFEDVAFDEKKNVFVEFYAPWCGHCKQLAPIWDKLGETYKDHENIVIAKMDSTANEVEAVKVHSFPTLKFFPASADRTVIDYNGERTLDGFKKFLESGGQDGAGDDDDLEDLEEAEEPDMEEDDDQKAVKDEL

The substance “sGC α WT, expressed in COS-7 cells (from UniProt Q02108 1-690) (enzyme)” registered a bound vs. input (densitometry) of 1.01 and a sGC bound over input (densitometry) of 1.08.

“sGC β WT, expressed in COS-7 cells (from UniProt Q02153 1-619) (enzyme)” yielded a sGC bound over input (densitometry) of 0.74.
